Test results as given in patent US11267842B2, “Enzymatic modification of nucleic acids” (The Regents of the University of California, priority 2015, dated 2022).

Substrate: CN1/C(=C/c2cc[n+](CCCCCC(=O)NCCOCCOCCOCCNCc3c[nH]c4nc(N)[nH]c(=O)c34)c3ccccc23)Sc2ccccc21
Assay: Estimation of PreQ1-TO substrate kinetics with ECY-A1 catalyzed by TGT
Assay type: biochemical, E. coli
Conditions: other: estimated from initial rates by fluorescence, 10 μM ECY-A1, 100 nM TGT, 37° C.
Method: Estimation of PreQ1-TO substrate kinetics with ECY-A1. An estimation of PreQ1-TO substrate kinetics with ECY-A 1 was performed under similar concentrations and conditions to that found from previous kinetic analyses using radiolabeled substrates.^2 A triplicate set of 20 μL reactions was analyzed using a Tecan Saphire-II plate reader in a Greiner 384 well flat bottom plate (VWR, CAT# 89089−584). Each well was prepped with 10 μM ECY-A 1 and a variable amount (from 100 μM to 10 nM in serial ⅓ dilutions) of PreQ1-TO in TGT reaction buffer. The plate was covered and allowed to warm up to 37° C. for 10 minutes. […] Each well was then covered with 10 μL of light mineral oil (to prevent evaporation of water) and the plate was immediately subjected to a fluorescence reading for the first kinetic time point at 37° C. Each well was monitored with an excitation of 501 nm and emission of 531. […] The gain was held fixed and the integration time set to 1 second with 10 reads averaged to each data point collected. The sample was monitored for 30 minutes at 37° C. with a reading taken every 2 minutes. The data was worked up using an ECY-A1-PreQ1-TO calibration curve to convert fluorescence into concentration of product in each sample for each time point to achieve an estimation of the initial rate of each reaction in M^−1/s^−1. […] This curve was analyzed with Graph Pad Prism v. […]

B1: bacterial (E.coli) tRNA guanine transglycosylase (TGT) (Escherichia coli K-12) (protein)
chain: MKFELDTTDGRARRGRLVFDRGVVETPCFMPVGTYGTVKGMTPEEVEATGAQIILGNTFHLWLRPGQEIMKLHGDLHDFMQWKGPILTDSGGFQVFSLGDIRKITEQGVHFRNPINGDPIFLDPEKSMEIQYDLGSDIVMIFDECTPYPADWDYAKRSMEMSLRWAKRSRERFDSLGNKNALFGIIQGSVYEDLRDISVKGLVDIGFDGYAVGGLAVGEPKADMHRILEHVCPQIPADKPRYLMGVGKPEDLVEGVRRGIDMFDCVMPTRNARNGHLFVTDGVVKIRNAKYKSDTGPLDPECDCYTCRNYSRAYLHHLDRCNEILGARLNTIHNLRYYQRLMAGLRKAIEEGKLESFVTDFYQRQGREVPPLNVDHHHHHH
notes: His6 (C); made in house; host or cells: E. coli BL21
Km: 9.8 µM | kcat: 0.0016 s⁻¹
